Experimental data from article doi:10.1101/2020.05.22.111005 (bioRxiv, 2020).

B1: COV2-2165 (human mAb) (antibody, V domains shown)
VH: EVQLVESGGGLVQPGGSLRLSCAASGLTVRSNYMTWVRQTPGKGLEWVSVIYSGGSTFYADSVKGRFTISRDNSKNTVYLQMNSLRAEDTAVYYCARDLVTYGLDVWGQGTTVTVSS
VL: DIQLTQSPSFLSASVGDRVTITCRASQGISNYLAWYQQKPGTAPNLLIYAASTLQSGVPSRFSGSGSGTEFTLTISSLQPEDFATYYCQLLNSHPLTFGQGTRLEIK
B2: Fab COV2-2165 (Fab, V domains shown)
VH: B1 VH
VL: B1 VL
B3: COV2-2196 (human mAb) (antibody, V domains shown)
VH: QMQLVQSGPEVKKPGTSVKVSCKASGFTFMSSAVQWVRQARGQRLEWIGWIVIGSGNTNYAQKFQERVTITRDMSTSTAYMELSSLRSEDTAVYYCAAPYCSSISCNDGFDIWGQGTMVTVSS
VL: not shown
B4: Fab COV2-2196 (Fab, V domains shown)
VH: B3 VH
VL: not shown

Assays:
[1] = target: SARS-CoV-2 S receptor-binding domain (SRBD), monomeric, wild type (SARS-CoV-2, Wuhan-Hu-1 reference spike, UniProt P0DTC2); experiment: BLI
[2] = target: T1, prefusion-stabilized trimeric SARS-CoV-2 S protein ectodomain (S2Pecto) (SARS-CoV-2, Wuhan-Hu-1 reference spike, UniProt P0DTC2, stabilised); experiment: negative-stain electron microscopy
[3] = target: T1, prefusion-stabilized trimeric …; experiment: ELISA

Binder | binding result [1] | binding result [2] | binding result [3]
B1 | binds |  | 
B2 |  | binds | 
B3 | binds |  | binds
B4 |  | binds | 
